Results published in PMC11503464, “Copper-61 is an advantageous alternative to gallium-68 for PET imaging of somatostatin receptor-expressing tumors: a head-to-head comparative preclinical study” (Frontiers in Nuclear Medicine, 2024).

Key:
HEK-SST2 cells [1] = experiment: Cellular uptake and distribution on intact HEK-SST2 cells; assay type: cell-based, human; conditions: specific uptake, after 4 h at 37°C
Protocol: At the defined time points, the medium was removed, and the cells were washed twice with ice-cold PBS. The cells were then treated twice for 5 min with ice-cold glycine solution (0.05 M, pH 2.8) to detach the cell membrane-bound fraction (acid released). Afterward, the cells containing the internalized fraction were detached using NaOH 1 M at 37°C and collected for measurement. [^68Ga]Ga-DOTA-TOC was evaluated as a reference.

HEK-SST2 xenografts [2] = conditions: female, athymic nude-Foxn1^nu/Foxn1^+, mouse, in vivo, 200 pmol, 1 h
[3] = Stability of labeling solutions at room temperature by radio-HPLC; assay type: physicochemical; conditions: labeling solution stored at room temperature
Protocol: An aliquot of DOTA-TOC or NODAGA-TOC (3–6 nmol, 1 mg/ml in TraceSelect water) was diluted in 0.25–0.30 ml ammonium acetate (0.5 M, pH 8), followed by the addition of [^61Cu]CuCl2 (30–150 MBq). The reaction mixture was incubated for 15 min at 95°C (DOTA-TOC) or at room temperature (NODAGA-TOC). The pH of the reaction mixture was between 5 and 6. Quality control was performed on a Shimadzu 2020 HPLC system connected to a Berthold radio detector (Flow Star 513).

HEK-SST2 cells [4] = experiment: Efflux from HEK-SST2 cells; assay type: cell-based, human
Protocol: The efflux was studied after 1 h incubation of the cells with the radiotracer at 37°C and the removal of the unbound fraction and the cell membrane-bound fraction, as described above (acid-wash). The cells were then incubated with fresh medium at 37°C either alone or with a competitor (1,000-fold excess of DOTA-TOC, 2.5 µM/well) for 10, 20, 30, 45, 60, 90, 120, 150, 180, and 240 min. At each time point, the efflux (or retention) was measured after the removal of the medium without or with the competitor and replacement with fresh pre-warmed (37°C) medium alone or with the competitor. At the end of the experiment, the cells were detached using 1 M NaOH at 37°C and collected to determine the remaining cell-associated radiotracer.

[5] = assay type: physicochemical; conditions: pH 7.4
Protocol: Briefly, the radiotracer (10 µl, 1 µM) was added to 1 ml of a 1:1 pre-saturated mixture of 1-octanol and phosphate-buffered saline (PBS pH 7.4). The solution was vortexed for 30 min and then centrifuged at 3,000 rpm to achieve phase separation. Aliquots of 0.1 ml from each phase were collected and measured in a γ-counter. The distribution coefficient was calculated as the average of the logarithmic values (n = 3) of the ratio between the radioactivity in the organic and PBS phases. [^68Ga]Ga-DOTA-TOC was used as a reference.

HEK-SST2 xenografts [6] = experiment: PET/CT in vivo specificity (DOTA-TOC pre-injection) in HEK-SST2 xenografts; design: species or system mice; conditions: PET/CT 1 h p.i.
Protocol: The mice were anesthetized with 1.5% isoflurane and dynamic PET scans were acquired from 0 to 1 h post-injection (p.i.). The mice were euthanized by CO2 at 4 h p.i., their bladders were mechanically emptied, and static PET scans were acquired for 30 min. […] The PET images were acquired in list mode using a small-animal PET scanner (β-CUBE, Molecubes, Ghent, Belgium) with a spatial resolution of 0.85 mm and an axial field-of-view of 13 cm. All PET scans were decay corrected and reconstructed into a 192 × 192 × 384 matrix by an ordered subsets maximization expectation (OSEM) algorithm using 30 iterations, a voxel size of 400 µm × 400 µm × 400 µm, and15 min per frame. Computed tomography (CT) data was used to apply attenuation correction on the PET data. The CT was imaged supine, headfirst, using the nanoSPECT/CT™ scanner (Bioscan Inc.). Topograms and helical CT scans of the whole mouse were first acquired using the following parameters: x-ray tube current: 177 µA, x-ray tube voltage 45 kVp, 90 s, and 180 frames per rotation, pitch 1. […] The specificity of the ^61Cu-labeled tracers was assessed in HEK-SST2 xenografts by administering DOTA-TOC (100 µl/200 nmol) 2–5 min pre-injection, followed by the injection of the radiotracer (100 µl/200 pmol/4 MBq). […]

Which results are given for C[C@@H](O)[C@@H]1NC(=O)[C@H](CCCCN)NC(=O)[C@@H](Cc2c[nH]c3ccccc23)NC(=O)[C@H](Cc2ccc(O)cc2)NC(=O)[C@@H](NC(=O)[C@@H](Cc2ccccc2)NC(=O)CN2CCN(CC(=O)O)CCN(CC(=O)O)CCN(CC(=O)O)CC2)CSSC[C@@H](C(=O)N[C@H](CO)[C@@H](C)O)NC1=O [[^61Cu]Cu-DOTA-TOC] [metal not drawn]?
Cellular uptake (surface bound + internalized) (HEK-SST2 cells [1]): 78.3 ± 1.3%; Heart uptake (HEK-SST2 xenografts [2]): 0.63 ± 0.07 %IA/g; Intestine uptake (HEK-SST2 xenografts [2]): 2.94 ± 0.15 %IA/g; Liver uptake (HEK-SST2 xenografts [2]): 3.59 ± 0.49 %IA/g; Radiochemical purity (%) 2 h ([3]; 2 h after end of synthesis): 96 ± 1%; Radiochemical purity (%) 4 h ([3]; 4 h after end of synthesis): 95 ± 1%; Efflux plateau in the absence of a competitor (HEK-SST2 cells [4]; after 2 h, 37°C, no further increase at 4 h): approximately 40%; Efflux with competitor (HEK-SST2 cells [4]; after 4 h at 37°C, DOTA-TOC (competitor) added to the medium): 80%; log D(O/PBS pH 7.4) [5]: −2.81 ± 0.29; Abdominal uptake (liver and intestine) after high excess DOTA-TOC pre-injection (HEK-SST2 xenografts [6]): not suppressed
